Assay results published in patent US20240034792A1 (HARBOUR BIOMED SHANGHAI, published 2024).
Where a chain is given by its changes, count along the chain named. Where two headings read alike, the source gives them in different places. Values belong to the binder of their own block, whether it stands above or below them.

Assays:
[1] = target: T1, Human PD-1 expressed on CHO-K1 cells (CHO-K1/hPD-1) (human, UniProt Q15116 25-288); assay: FACS, CHO-K1/hPD-1 cells
T1 construct: whole, on cells; also called CHO-K1 cells overexpressing human PD-1
T1 sequence (Q15116 25-288): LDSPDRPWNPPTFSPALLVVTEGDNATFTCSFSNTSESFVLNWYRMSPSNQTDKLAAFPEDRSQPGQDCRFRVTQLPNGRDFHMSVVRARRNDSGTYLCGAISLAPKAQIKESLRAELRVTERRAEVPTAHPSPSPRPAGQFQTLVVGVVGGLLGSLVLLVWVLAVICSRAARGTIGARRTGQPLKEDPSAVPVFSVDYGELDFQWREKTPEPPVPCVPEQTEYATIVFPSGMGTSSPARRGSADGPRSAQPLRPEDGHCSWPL

[2] = target: T1, Human PD-1 expressed on CHO-K1 cells …; assay: FACS blocking of biotin-labeled human PD-L2 binding to CHO-K1-hPD-1 cells
Protocol: (§1) Briefly, the CHO-K1-hPD-1 cells were digested and resuspended in an F-12K complete medium, and the cell density was adjusted to 1×10⁶ cells/mL. The cells were seeded in a 96-well V-bottom plate (Corning, Cat#3894) at 100 μL/well, followed by the addition of the test antigen-binding proteins with concentrations 2-fold of final concentrations obtained by 3-fold or 5-fold gradient dilution were each added at 100 μL/well. The mixtures were well mixed. The maximum final concentration of the antigen-binding proteins was 100 nM or 300 nM. A total of 8 concentrations were set. hIgG was used as a control. The cells were incubated at 4° C. for 1 h away from light. […] The cells were incubated at 4° C. away from light for 30 min. The cells in each well were rinsed twice with 100 μL of pre-cooled PBS, and centrifuged at 500 g at 4° C. for 5 min, and then the supernatant was discarded. A fluorescent secondary antibody (PE Streptavidin, BD, Cat# 554061, 1:200) was added at 100 μL/well, and the cells were incubated at 4° C. away from light for 30 min. The cells in each well were rinsed twice with 200 μL of pre-cooled PBS, and centrifuged at 500 g at 4° C. for 5 min, and then the supernatant was discarded. Finally, the cells in each well were resuspended in 200 μL of pre-cooled PBS, the fluorescence signal values were read using a BD FACS CANTOII, and the IC₅₀ values were calculated.

[3] = target: T1, Human PD-1 expressed on CHO-K1 cells …; assay: FACS blocking of biotin-labeled human PD-L1 binding to CHO-K1-hPD-1 cells
Protocol: as §1

[4] = target: T1, Human PD-1 expressed on CHO-K1 cells …; assay: FACS, CHO-K1/hPD-1 cells; remark: listed apart in the source
Protocol: (§2) In order to investigate the in vitro binding activity of the PD-1 antigen-binding proteins to human/cynomolgus monkey PD-1, the binding assay at the cellular level was performed using a CHO-K1 cell strain overexpressing human or cynomolgus monkey PD-1 (CHO-K1/hPD-1 or CHO-K1/cyno PD-1, from GenScript). Briefly, the CHO-K1-hPD-1 cells were digested and resuspended in an F-12K complete medium, and the cell density was adjusted to 1×10⁶ cells/mL. The cells were seeded in a 96-well V-bottom plate (Corning, Cat#3894) at 100 μL/well, followed by the addition of the test antigen-binding proteins with concentrations 2-fold of final concentrations obtained by 5-fold gradient dilution were each added at 100 μL/well. The mixtures were well mixed. The maximum final concentration of the antigen-binding proteins was 100 nM or 300 nM. A total of 8-11 concentrations were set. hIgG was used as a control. The cells were incubated at 4° C. for 1 h away from light. Thereafter, the cells in each well were rinsed twice with 100 μL of pre-cooled PBS, and centrifuged at 500 g at 4° C. for 5 min, and then the supernatant was discarded. Then 100 μL of a fluorescent secondary antibody (goat anti-human IgG (H+L) secondary antibody, Alexa Fluor® 488 conjugate, Invitrogen, Cat #A11013, 1:1000) was added to each well. The plate was incubated away from light at 4° C. for 30 min. The cells in each well were rinsed twice with 200 μL of pre-cooled PBS, and centrifuged at 500 g at 4° C. for 5 min, and then the supernatant was discarded. Finally, the cells in each well were resuspended in 200 μL of pre-cooled PBS, and the fluorescence signal values were read using a BD FACS CANTOII.

[5] = target: T2, Human PD-1-His protein (ACROBiosystems, # PD1-H5221) (human, UniProt Q15116 25-167); assay: ELISA, plate-coated human PD-1-His
T2 construct: Bought reagent, coated on the ELISA plate; also called human PD-1 protein; human PD-1 antigen; not shown: His tag
T2 sequence (Q15116 25-167 limits assumed): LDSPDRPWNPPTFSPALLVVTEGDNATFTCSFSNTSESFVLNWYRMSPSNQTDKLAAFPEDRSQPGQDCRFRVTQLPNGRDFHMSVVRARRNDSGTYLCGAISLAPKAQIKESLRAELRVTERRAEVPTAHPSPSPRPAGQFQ
Protocol: Human PD-1-His protein (ACROBiosystems, # PD1-H5221) was diluted to 2 μg/mL with PBS, added to a 96-well plate (Corning, cat#9018) at 100 μL/well, and incubated at 4° C. overnight. After the liquid was discarded, the plate was washed 3 times with PBST buffer (pH 7.4, containing 0.05% Tween-20), and 250 μL of 2% BSA blocking buffer was added. The plate was incubated at 37° C. for 1 h. The blocking buffer was discarded, and the plate was washed 3 times with PBST buffer (pH 7.4, containing 0.05% Tween-20). The test antigen-binding protein was 5-fold diluted in sequence at an initial concentration of 100 nM for a total of 8-10 concentration gradients, and added at 100 μL/well. The plate was incubated at 37° C. for 1 h. An isotype antibody was taken as a control. After the plate was washed 3 times with PBST buffer (pH 7.4, containing 0.05% Tween-20), a 4000-fold diluted goat anti-human HRP secondary antibody (Invitrogen, #A18805) was added. The plate was incubated away from light at 37° C. for 1 h. After the plate was washed 3 times with PBST buffer (pH 7.4, containing 0.05% Tween-20), TMB (Biopanda, # TMB-S-003) was added at 100 μL/well. The plate was left away from light at room temperature for about 5 min. The reactions were terminated by adding 50 μL of stop buffer (BBI life sciences, #E661006-0200) to each well, and the absorbance values at 450 nm (OD450) were measured using a microplate reader (PerkinElemer, #Enspire). The half maximal effective concentration (EC₅₀) was calculated from the measurement results.

[6] = target: T3, Cynomolgus monkey PD-1 expressed on CHO-K1 cells (CHO-K1/cyno PD-1) (cynomolgus monkey, UniProt B0LAJ3 25-288); assay: FACS, CHO-K1/cyno PD-1 cells
T3 construct: also called CHO-K1 cells overexpressing cynomolgus monkey PD-1
T3 sequence (B0LAJ3 entry or part of it limits assumed): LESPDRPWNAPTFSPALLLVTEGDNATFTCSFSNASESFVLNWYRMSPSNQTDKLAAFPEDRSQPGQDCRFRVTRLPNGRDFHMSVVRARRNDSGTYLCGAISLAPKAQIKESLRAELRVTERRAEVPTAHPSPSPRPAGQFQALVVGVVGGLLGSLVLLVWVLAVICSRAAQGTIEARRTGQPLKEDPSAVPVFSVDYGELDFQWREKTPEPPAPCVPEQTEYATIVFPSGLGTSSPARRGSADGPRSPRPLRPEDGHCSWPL
Protocol: as §2

EC50 [1]: 4.73 nM
Maximum (MFI) [1]: 3.08e+06
B1: PR005573 (antibody, human IgG1, V domains shown)
VH: EVQLVETGGGLIQPGGSLRLSCAASGFNVSSHYMSWVRQAPGKGREWVSIIDKAGSGYYAASVKGRFTISRDNSKNRLYLQMNSLRAEDTAMYYCARATEVREKNGYNYPFNYWGQGTLVTVSS
notes: no light chain; also called anti-PD1 PR002481R2M3_D1 HCAb hIgG1

EC50 [1]: 3.91 nM
Maximum (MFI) [1]: 2.82e+06
B2: PR005574 (antibody, human IgG1, V domains shown)
VH: B1 VH with A61D, N105Q
notes: no light chain; also called anti-PD1 PR002481R2M1_F1 HCAb hIgG1

EC50 [1]: 8.62 nM
Maximum (MFI) [1]: 3.3e+06
B3: PR005582 (antibody, human IgG1, V domains shown)
VH: B1 VH with S30A, H32F, G57T, A60G, N105Q
notes: no light chain; also called anti-PD1 PR002481Com_28 HCAb hIgG1

EC50 [1]: 7.31 nM
Maximum (MFI) [1]: 3.16e+06
B4: PR005581 (antibody, human IgG1, V domains shown)
VH: B1 VH with H32F, G57T, A60G, N105Q
notes: no light chain; also called anti-PD1 PR002481R2M1_A1 HCAb hIgG1

EC50 [1]: 4.02 nM
Maximum (MFI) [1]: 3.02e+06
B5: PR005584 (antibody, human IgG1, V domains shown)
VH: B1 VH with H32F, G57T, A61D, N105Q
notes: no light chain; also called anti-PD1 PR002481Com_30 HCAb hIgG1

IC50 [2]: 3.38 nM
Maximum inhibition rate (%) [2]: 80.1%
IC50 [3]: 0.437 nM
Maximum inhibition rate (%) [3]: 40.2%
EC50 [5]: 0.102 nM
OD Maximum [5]: 3.31
EC50 [6]: 1.58 nM
MFI Maximum [6]: 24800
B8: PR000679 (antibody, human IgG4 S228P, kappa, V domains shown)
VH: QVQLVQSGTEVKKPGSSVKVSCKASGGTFSSYAISWVRQAPGQGLEWMGGIIPIFDTVSSAQKFQGRVTITADKSTSTAYMELFSLRSEDTAVYYCARSPPYSSNWYQYFQHWGQGTLVTVSS
VL: DIQMTQSPSTLSASVGDRVTITCRASQTISIWLAWYQQKPGKAPKLLIYKASSLESGVPSRFSGSGSGTEFTLTISSLQPDDFATYYCQQFNSYWTFGQGTKVEIKR
notes: Fully human recombinant H2L2 antibody, human IgG4, kappa light chain; also called 4004_6C11C6

Further lines, the binder ahead of its results:

B6: PR000677 (antibody, human IgG4 S228P, kappa, V domains shown)
VH: QVQLQQSGPGLVKPSQTLSLTCAISGDSVSSNSAAWNWIRQSPSRGLEWLGRTYYRSKWYSDYGISVNSRITVNPDTSKNLFSLQLNPVTPEDTAVYYCTRETHYYGSGSYLDYWSQGTLVTVSS
VL: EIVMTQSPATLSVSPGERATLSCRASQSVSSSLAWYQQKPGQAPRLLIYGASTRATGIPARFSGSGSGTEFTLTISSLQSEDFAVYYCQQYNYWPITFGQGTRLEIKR
notes: Fully human recombinant H2L2 antibody, human IgG4, kappa light chain; also called 4004_33B9E4
IC50 [2]: 4.52 nM
Maximum inhibition rate (%) [2]: 14%
IC50 [3]: 3.4 nM
Maximum inhibition rate (%) [3]: 31.2%
EC50 [4]: 2.1 nM
MFI Maximum [4]: 1.87e+06
EC50 [5]: 0.078 nM
OD Maximum [5]: 3.27
EC50 [6]: 2.86 nM
MFI Maximum [6]: 34500

B7: PR000674 (antibody, human IgG4 S228P, kappa, V domains shown)
VH: QVQLVESGGGVVQPGKSLRLSCTVSGLTFSDNGMHWVRQAPGRGLEWMSVIWYDGSKKYYADSVKGRFTISRDNSKNTLYLQMNNMRVEDTAVYYCATNSDYWGQGTLVTVSS
VL: EIVLTQSPATLSLSPGERATLSCRASQSVSSYLAWYQQKPGQAPRLLIYDTSKRATGIPARFSGSGSGTDFTLTISSLEPEDFAVYYCQQHNNWIFTFGPGTKVDIKR
notes: Fully human recombinant H2L2 antibody, human IgG4, kappa light chain; also called 4004_12H9C1
IC50 [2]: 1.83 nM
Maximum inhibition rate (%) [2]: 92.7%
IC50 [3]: 0.769 nM
Maximum inhibition rate (%) [3]: 66.7%
EC50 [4]: 1.94 nM
MFI Maximum [4]: 2.35e+06
EC50 [5]: 0.074 nM
OD Maximum [5]: 3.24
EC50 [6]: 2.35 nM
MFI Maximum [6]: 41200

B9: PR000673 (antibody, human IgG4 S228P, kappa, V domains shown)
VH: QVQLVESGGGVVQPGRSLRLSCAASGFIFSNYGMHWVRQAPGKGLEWVAVIWYDGSKKYYGDSVKGRFTISRDNSKNTLYLQMNSLRDEDTAVYFCARNDDYWGQGTLVTVSS
VL: EIVLTQSPATLSFSPGERATLSCRASQSVSSDLAWYQQKPGQAPSLLIYDASNRATGIPARFSGSGSGTDFTLTISSLEPEDFAVYYCHQRNNWPLTFGGGTKVEIKR
notes: Fully human recombinant H2L2 antibody, human IgG4, kappa light chain; also called 4004_10H9A12
IC50 [2]: 1.55 nM
Maximum inhibition rate (%) [2]: 90.3%
IC50 [3]: 0.402 nM
Maximum inhibition rate (%) [3]: 45.6%
EC50 [4]: 4.76 nM
MFI Maximum [4]: 1.57e+06
EC50 [5]: 0.066 nM
OD Maximum [5]: 3.09
EC50 [6]: 2.04 nM
MFI Maximum [6]: 38200

B10: PR000675 (antibody, human IgG4 S228P, kappa, V domains shown)
VH: EVQLLESGGGLVQPGGSLRLSCVDSGFTFSSYAMTWVRQAPGKGLEWVSGISGSGYSTYYADSVKGRFTISRDNSKKTLYLQMNSLRAEDTAVYYCAELSLDYWGQGTLVTVSS
VL: B9 VL with F13L, S31R, D32Y, S45R, I48M, Y49H, S52A, I58L, S63N, H89Q
notes: Fully human recombinant H2L2 antibody, human IgG4, kappa light chain; also called 4004_19G8F2
IC50 [2]: 19.7 nM
Maximum inhibition rate (%) [2]: 59.9%
IC50 [3]: 12.4 nM
Maximum inhibition rate (%) [3]: 72%
EC50 [4]: 7.91 nM
MFI Maximum [4]: 2.29e+06
EC50 [5]: 0.113 nM
OD Maximum [5]: 3.31
EC50 [6]: 6.91 nM
MFI Maximum [6]: 36800

B11: PR000676 (antibody, human IgG4 S228P, kappa, V domains shown)
VH: QIQLVESGGGVVQPGRSLRLSCAASGFTLSSYGMHWVRQAPGKGLEWVAVILSDGSNKYYADSVKGRFTISRDNSKNTLYLQMNSLRAEDTAVYYCADLGGDVWGQGTTVTVSS
VL: B9 VL with F13L, D32Y, S45R, N53T, H89Q, N92S
notes: Fully human recombinant H2L2 antibody, human IgG4, kappa light chain; also called 4004_1A7A1
IC50 [3]: 25.6 nM
Maximum inhibition rate (%) [3]: 76%
EC50 [4]: 10.2 nM
MFI Maximum [4]: 2.16e+06
EC50 [5]: 0.121 nM
OD Maximum [5]: 3.32
EC50 [6]: 8.34 nM
MFI Maximum [6]: 39000
